Results from patent US20170183415A1 (Novartis, published 2017).

T1: human CD123-Fc (human, UniProt P26951 19-305, limits assumed)
T1 construct: Staining reagent; not shown: Fc part
T1 sequence (looked up): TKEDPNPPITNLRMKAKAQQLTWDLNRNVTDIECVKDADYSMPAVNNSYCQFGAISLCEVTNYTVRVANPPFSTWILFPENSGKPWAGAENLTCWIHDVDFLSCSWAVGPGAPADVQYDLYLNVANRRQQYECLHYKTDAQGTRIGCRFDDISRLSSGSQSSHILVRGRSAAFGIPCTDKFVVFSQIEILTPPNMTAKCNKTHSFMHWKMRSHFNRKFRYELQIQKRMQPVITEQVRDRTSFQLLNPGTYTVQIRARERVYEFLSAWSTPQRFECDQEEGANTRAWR

T2: immobilized CD123 (UniProt P26951 19-305, limits assumed)
T2 construct: also called IL-3Rα; IL3Rα
T2 sequence (looked up): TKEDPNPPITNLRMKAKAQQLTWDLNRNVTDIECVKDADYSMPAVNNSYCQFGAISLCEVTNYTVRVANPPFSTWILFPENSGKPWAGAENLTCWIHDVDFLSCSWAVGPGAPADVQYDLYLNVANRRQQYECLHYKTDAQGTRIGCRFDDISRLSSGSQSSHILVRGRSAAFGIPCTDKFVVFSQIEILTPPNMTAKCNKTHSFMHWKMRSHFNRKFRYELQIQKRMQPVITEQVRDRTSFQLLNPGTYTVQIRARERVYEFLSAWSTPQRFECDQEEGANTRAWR

B1: 109375 CAR6 - Full (humanized CD123 CAR) (other)
chain: QIQLVQSGSELKKPGASVKVSCKASGYIFTNYGMNWVRQAPGQGLEWMGWINTYTGESTYSADFKGRFVFSLDTSVSTAYLQINALKAEDTAVYYCARSGGYDPMDYWGQGTTVTVSSGGGGSGGGGSGGGGSGGGGSEIVLTQSPATLSLSPGERATLSCRASESVDNYGNTFMHWYQQKPGQAPRLLIYRASNLESGIPARFSGSGSRTDFTLTISSLEPEDVAVYYCQQSNEDPPTFGQGTKLEIKTTTPAPRPPTPAPTIASQPLSLRPEACRPAAGGAVHTRGLDFACDIYIWAPLAGTCGVLLLSLVITLYCKRGRKKLLYIFKQPFMRPVQTTQEEDGCSCRFPEEEEGGCELRVKFSRSADAPAYKQGQNQLYNELNLGRREEYDVLDKRRGRDPEMGGKPRRKNPQEGLYNELQKDKMAEAYSEIGMKGERRRGKGHDGLYQGLSTATKDTYDALHMQALPPR
notes: Chimeric antigen receptor; also called MW89-29GB
B2: CAR 8 - Full (humanized CD123 CAR) (other)
chain: QIQLVQSGAEVKKPGASVKVSCKASGYIFTNYGMNWVRQAPGQRLEWMGWINTYTGESTYSADFKGRVTITLDTSASTAYMELSSLRSEDTAVYYCARSGGYDPMDYWGQGTTVTVSSGGGGSGGGGSGGGGSGGGGSEIVLTQSPATLSLSPGERATLSCRASESVDNYGNTFMHWYQQKPGQAPRLLIYRASNLESGIPARFSGSGSRTDFTLTISSLEPEDVAVYYCQQSNEDPPTFGQGTKLEIKTTTPAPRPPTPAPTIASQPLSLRPEACRPAAGGAVHTRGLDFACDIYIWAPLAGTCGVLLLSLVITLYCKRGRKKLLYIFKQPFMRPVQTTQEEDGCSCRFPEEEEGGCELRVKFSRSADAPAYKQGQNQLYNELNLGRREEYDVLDKRRGRDPEMGGKPRRKNPQEGLYNELQKDKMAEAYSEIGMKGERRRGKGHDGLYQGLSTATKDTYDALHMQALPPR
notes: Chimeric antigen receptor on transduced human T cells; also called UL69-05CC
B3: CAR 7 Full (humanized CD123 CAR) (other)
chain: QIQLVQSGAEVKKPGASVKVSCKASGYIFTNYGMNWVRQAPGQRLEWMGWINTYTGESTYSADFKGRVTITLDTSASTAYMELSSLRSEDTAVYYCARSGGYDPMDYWGQGTTVTVSSGGGGSGGGGSGGGGSGGGGSDIVLTQSPDSLAVSLGERATINCRASESVDNYGNTFMHWYQQKPGQPPKLLIYRASNLESGVPDRFSGSGSRTDFTLTISSLQAEDVAVYYCQQSNEDPPTFGQGTKLEIKTTTPAPRPPTPAPTIASQPLSLRPEACRPAAGGAVHTRGLDFACDIYIWAPLAGTCGVLLLSLVITLYCKRGRKKLLYIFKQPFMRPVQTTQEEDGCSCRFPEEEEGGCELRVKFSRSADAPAYKQGQNQLYNELNLGRREEYDVLDKRRGRDPEMGGKPRRKNPQEGLYNELQKDKMAEAYSEIGMKGERRRGKGHDGLYQGLSTATKDTYDALHMQALPPR
notes: Chimeric antigen receptor on transduced human T cells; also called WW88-24LB
B4: CD123 CAR 1172 (mouse anti-human CD123 CAR, scFv 32716 light-to-heavy, CD8 hinge, 4-1BB, CD3zeta) (other)
chain: GSDIVLTQSPASLAVSLGQRATISCRASESVDNYGNTFMHWYQQKPGQPPKLLIYRASNLESGIPARFSGSGSRTDFTLTINPVEADDVATYYCQQSNEDPPTFGAGTKLELKGGGGSGGGGSSGGGSQIQLVQSGPELKKPGETVKISCKASGYIFTNYGMNWVKQAPGKSFKWMGWINTYTGESTYSADFKGRFAFSLETSASTAYLHINDLKNEDTATYFCARSGGYDPMDYWGQGTSVTVSSASSGTTTPAPRPPTPAPTIASQPLSLRPEACRPAAGGAVHTRGLDFACDIYIWAPLAGTCGVLLLSLVITLYCKRGRKKLLYIFKQPFMRPVQTTQEEDGCSCRFPEEEEGGCELRVKFSRSADAPAYKQGQNQLYNELNLGRREEYDVLDKRRGRDPEMGGKPRRKNPQEGLYNELQKDKMAEAYSEIGMKGERRRGKGHDGLYQGLSTATKDTYDALHMQALPPR
notes: Chimeric antigen receptor expressed on human T cells; also called C1172; clone 72
B5: CAR 5 - Full (humanized CD123 CAR) (other)
chain: QIQLVQSGSELKKPGASVKVSCKASGYIFTNYGMNWVRQAPGQGLEWMGWINTYTGESTYSADFKGRFVFSLDTSVSTAYLQINALKAEDTAVYYCARSGGYDPMDYWGQGTTVTVSSGGGGSGGGGSGGGGSGGGGSDIVLTQSPDSLAVSLGERATINCRASESVDNYGNTFMHWYQQKPGQPPKLLIYRASNLESGVPDRFSGSGSRTDFTLTISSLQAEDVAVYYCQQSNEDPPTFGQGTKLEIKTTTPAPRPPTPAPTIASQPLSLRPEACRPAAGGAVHTRGLDFACDIYIWAPLAGTCGVLLLSLVITLYCKRGRKKLLYIFKQPFMRPVQTTQEEDGCSCRFPEEEEGGCELRVKFSRSADAPAYKQGQNQLYNELNLGRREEYDVLDKRRGRDPEMGGKPRRKNPQEGLYNELQKDKMAEAYSEIGMKGERRRGKGHDGLYQGLSTATKDTYDALHMQALPPR
notes: Chimeric antigen receptor on transduced human T cells; also called GW86-29RB
B6: parent mouse scFv (anti-CD123, clone 32716) (scFv)
scFv: DIVLTQSPASLAVSLGQRATISCRASESVDNYGNTFMHWYQQKPGQPPKLLIYRASNLESGIPARFSGSGSRTDFTLTINPVEADDVATYYCQQSNEDPPTFGAGTKLELKGGGGSGGGGSSGGGSQIQLVQSGPELKKPGETVKISCKASGYIFTNYGMNWVKQAPGKSFKWMGWINTYTGESTYSADFKGRFAFSLETSASTAYLHINDLKNEDTATYFCARSGGYDPMDYWGQGTSVTVSS
notes: also called mouse Ctrl scFv

Biological target: T1, human CD123-Fc
Assay: flow cytometry of transduced T cells (day 10) stained with human CD123-Fc, then anti-human Fc PE; unit not given
Description: To detect the transduction efficiency and level of expression of each construct, transduced T cells on day 10 of expansion were stained with (i) Alexa fluor 647 goat anti-mouse F(ab) reagent, (ii) FITC goat anti-human F(ab), or (iii) human CD123-Fc primary followed by anti-human Fc PE.

Going from B1 to B2, the “Expression by CD123-Fc” value rises from 0.64 to 73.2.

Compared with B3, B4 is lower in “Expression by CD123-Fc” value: 51 for the first, 32.3 for the second.

With B5 the “Expression by CD123-Fc” value was 46.1.

Biological target: T2, immobilized CD123
Assay: ELISA, soluble scFv on immobilized CD123

B6 was tested, and the EC50 was 1.1 to 2.6 nM.
